Laboratory results published in the DeepSol protein solubility set.

Assay: soluble on expression in E. coli; label from the status in PepcDB or PDB records

| Sequence | soluble on expression in E. coli |
| --- | --- |
| MGSDKIHHHHHHMSEVSKWPAINPFHWGYNGTVSHIVGENGSIKLHLKDNKEQVDFDEFANKYVPTLKNGAQFKLSPYLFTGILQTLYLGAADFSKKFPVFYGREIVKFSDGGVCTADWLIDSWKKDYEFDQSTTSFDKKKFDKDEKATHPEGWPRLQPRTRYLKDNELEELREVDLPLVVILHGLAGGSHEPIIRSLAENLSRSGRFQVVVLNTRGCARSKITTRNLFTAYHTMDIREFLQREKQRHPDRKLYAVGCSFGATMLANYLGEEGDKSPLSAAATLCNPWDLLLSAIRMSQDWWSRTLFSKNIAQFLTRTVQVNMGELGVPNGSLPDHPPTVKNPSFYMFTPENLIKAKSFKSTREFDEVYTAPALGFPNAMEYYKAASSINRVDTIRVPTLVINSRDDPVVGPDQPYSIVEKNPRILYCRTDLGGHLAYLDKDNNSWATKAIAEFFTKFDELVV | not soluble |
| MRITIYTRNDCVQCHATKRAMENRGFDFEMINVDRVPEAAEALRAQGFRQLPVVIAGDLSWSGFRPDMINRLHPAPHAASA | soluble |
| MSCRKSAPDQCSIWQSEIGVFKMFITMNRLLRLQIMIPELFLYNETHQGLNNQNVHAVGAYFDQHDPEGLQQVVPLLNEAAANQDVVVIDSMASLVDLYTMDSRGLHEICDLATPFFQLLAHPRISMEVKLLINRLKGVLLTRDAAILQLIIQVYENIAEGDQEAEEADERVKALLAERFGNDI | not soluble |
| LLVDKKVSVNDVDIGLISLQYLNIIANYTNKKAIEKITDYLVITSKILAKKADNLLNDHQEESVLEYDLATNNFRDKMIANLVEHKRYCDSLGEFEKLRVNRLAYFSKANEMEQFIKTANDQLVTVEDQLPNYISVLKLFHAMNKLLEMRLSSLLTNKNITIKELSVEQVQKELVLAIKQFNYQTVSLKRVLLKLN | not soluble |
| MRKLVVGSRRSKLALTQSQQFIDKLKAVEPNLEIEIKEIVTKGDRIVDKQLSKVGGKGLFVKEIQHELFEKNIDMAIHSLKDVPSVIPEGLTLGCIPDRELPFDAYISKTHTPLSQLPEGSIIGTSSLRRGAQILSKYPNLEIKWIRGNIDTRLEKLQTEDYDAIILAAAGLRRMGWSDDIVTSYLDRDTLLPAIGQGALGIECRSDDEELLTLLSKVHNDEVAKCVTAERTFLAEMDGSCQVPIAGYATISDQNEIEFTGLIMTPDGKERFEYTMNGTDPVELGKTVSNKLKEQGAYEIIKRLNEQH | not soluble |
| MHPVILFDGDCLFCHASAHWIAARDRQAVFRFAAQQSIVGQALLAKQEMSAEDSVVLIENGCCYVKSEAVLRIGRRLAWPWNWLAAAGFLIPRLLRDHMYDAIANRRHRLVPKRDHCQLPSPELRARFLDELPQ | not soluble |
| MSRIEFIRKEEKKYHDFCYENYKLFEEGSWLYKPVKTVIELLPILDERTSPKVLDLGSGVGRNSIPIAKEIKNKNGKVICVDLLDSALDKLKLYSKEYEVEEVIETMKADIGHYDIAKNEYDLIVAVSTLEHVESENVFEKVIKKMASGTKNEGINCIIVNSEVEEIDISTNEKLDAMMEVNMKTKDMLSKLRQSYNGWEIVNQLVKPLEYKIVRDERDVLLKTNAITFAVKKKLEHHHHHH | not soluble |
| MSLTSQPREQFLLISALGPNPMELTTLLCRACVESRCAVVSSRLTRHGEFSALVLQISGSWDALARLEGSLPALTKRGDITLSMTRSNAHVTRAQALPYVAYVSAVYRPDILNELCQFFIDHNIELENLTCDTYQAPHTNTTMLNATITVTLPAGTQISWLRDQFLDFADALNLDALIEPWREGGSHHHHHH | soluble |
| GSGYREVEYWDQRYQGAADSAPYDWFGDFSSFRALLEPELRPEDRILVLGCGNSALSYELFLGGFPNVTSVDYSSVVVAAMQACYAHVPQLRWETMDVRKLDFPSASFDVVLEKGTLDALLAGERDPWTVSSEGVHTVDQVLSEVSRVLVPGGRFISMTSAAPHFRTRHYAQAYYGWSLRHATYGSGFHFHLYLMHKGGKLSVAQLALGAQILSP | soluble |
| MELDFDKMNGLVPAIIQDNETRKVLMLGFMNKEAYDKTVETGKVTFFSRTKNRLWTKGEESGNFLHVVSIKADCDNDTLLIQADPAGPVCHTGTDTCWGEKNEEPVMFLKALQDFIDKRHEEMPQGSYTTSLFESGINKIAQKVGEEAVETVIEATNGTNERLIYEGADLIYHMIVLLTSKGYRIEDLARELQERHSSTWKKH | not soluble |
| GSHMQGQSPIKDQEMKELIRRSQEGDQEARDEIIEKNMRLVWSVVQRFLNRGYEADDLFQIGCIGLLKSVDKFDLSYDVKFSTYAVPMIIGEIQRFLRDDGTVKVSRSLKEMGNKIRKAKDELSKTRGRAPTVTEIADHLGISPEDVVLAQEAVRLPTSIHETVYENDGDPITLLDQIADADEASWFDKIALKKAIEELDERERLIVYLRYYKDQTQSEVASRLGISQVQMSRLEKKILQHIK | soluble |
| MGSDKIHHHHHHAGTYNPKNTTSFNINKSNYVAKGRIYKLRLPAAGRVVTNSDITLKNSMEWTCIPYGKDKNTYYLRKGTYYLTSSKNTNVKTAYTRLTKIRKNLETYVETKKNNDNSSLRAREIKVGQKIKAMGAMYDYDGIDYYRFTIDSPQMVTMKMTNAPIYQLGNGNIFSKMGITMFSDNNPVGDNTILYPETFSSKGNKSASQSWYLAKGTYYFSVSTRGLYNFQLTAVPDTRMVPADTEIESLKDTKDGVVASLRDALHAKTYELAWREKGSKFAPFSSSSNTTKVSTASATRYLKVNGHEIPVQIGRKLVNGQTYEFVARGVSNPNYIRYGNPETDNYFGAWTKIVEHTYYAPANGVPGAVELNAQADNTYHNIHVSWTKIDTAQSYRVAYRQKGTNKWYYEVTDQDSNAVTGITRNKTYELKLQALNGKEEGPWSTVKEVFLK | not soluble |
| GMREDMKDNVVKDKSLEFAVRIVNLYKFLVNEQKEFVMSKQILRSGTSIGANIREAEQAQSRADFINKLNIALKEANETEYWLELLIRTEYITREQYESINNDSTEINKLLISIIKTTKNN | soluble |
| MGSDKIHHHHHHMRPIKNAKKIDYNLIKVFDTVITEGNATRAARKLDVTPAAISQALLRLQNLYGEELFIRTRKGLVPSSKGKSLHQVFRQAIESIESTLCDKTDAQESNELIVLGGDITENYYFPALLDTVLMNRYIIKHYAIKKTGEYSPASMLTHGYADVIMGILEIKNEMIESYLIDNLSDFVCVCGEKSPLVGLEKMSLYNFYAARHAVYHSDMFSSFTADSIDLFKSSTPYAGRREIGYYSDSLFGVIDIVEKSDMVAILPGKIATYFRDVRRYNIKILRMPDEMIFRTLPVYAYLATNSTHYKNVKKLISTFQSTFLFSQEKQPDALVEGSTSLCDLSV | not soluble |
| MTTFPILRLPEKSLKIAIRCLTMEQIIKFSLISESTKRTAESLNLQADPFWICFGESVHISVHANFVENYQQDIPWNPVEVDLRTLLDHFQSVLHTNKFEYFFV | not soluble |
| MAHHHHHHMAASLSSSPVRHPIVDNAAVPAASHRIPPPLNGFAFLEHRRSALSHDTFIARDVRQQQHPEQQDNDPAKVIIRVYALEYLRRDEECRFALERECLTARLVVHPHLLPLGAPFASKTDLFVVEKYCAGGDLYELMVSLAKEDPIASEMGAAKGEAPPRSSTGLPTNTVKRFMRELLSAVQYLHRTCGLVHRNIKLETLFIDEEQHLRLGGFGLCAVLPPPSVVTGDREGALDAPDAPEDTASSSHEPLRLCCGSKHYAAPELVQGHPYQGEGVDAWACGVVLFALLTSCFPFDSDDGDEALFRLLCGDVEAHLAQHPAMAAIEDPQACDLVRNLLRPNPNARYTVSEALEHPYLWVA | not soluble |
| MSVLDALWEDRDVRFDLSAQQMKTRPGEVLIDCLDSIEDTKGNNGDRGRLLVTNLRILWHSLALSRVNVSVGYNCILNITTRTANSKLRGQTEALYILTKCNSTRFEFIFTNLVPGSPRLFTSVMAVHRAYETSKMYRDFKLRSALIQNKQLRLLPQEHVYDKINGVWNLSSDQGNLGTFFITNVRIVWHANMNDSFNVSIPYLQIRSIKIRDSKFGLALVIESSQQSGGYVLGFKIDPVEKLQESVKEINSLHKVYSASPIFGVDYEMEEKPQPLEALTVEQIQDDVEIDSDGHTDAFVAYFADGNKQQDREPVFSEELGLAIEKLKDGFTLQGLWEVMS | soluble |
| MGSDKIHHHHHHAACQDEDHTVPTLPSGNDPEINDPVVEFYDWEKNRTELLTSTDMVLLYGGGHHRTPYTWDKERVSSYIRYVDTDNQSHWLFDSFLFLEIMDTGTGGANKMFAKGYNLESANQADWTKLIDYYFQSETGIGALDASVKEASAILGTPRQKRQIVISIPEPIVYQHPEQASSSTKYWGKIDNQTLDFSNSADRIKACKWYIDQVRAKFNEKNYQHVELAGFYWLAEKATDTRDILNAVAIYLNKLKYSFNWIPYYGADGYNQWKSLGFNYAYFQPNYFFNESVPDSRLEDACQKALTYDMHMELEFDDNALNSRGKAYRLKNYMSAFKKHGIWEKKRLAYYQGSASLLTLKKSGNAADTQLYHEFCNFVISRPIRSSH | not soluble |
| MGSDKIHHHHHHMTSRTPLVSVLPDFPWDSLASAKAKAASHPDGIVNLSVGTPVDPVAPSIQIALAEAAGFSGYPQTIGTPELRAAIRGALERRYNMTKLVDASLLPVVGTKEAIALLPFALGISGTVVIPEIAYPTYEVAVVAAGCTVLRSDSLFKLGPQIPSMMFINSPSNPTGKVLGIPHLRKVVKWAQENNVILAADECYLGLGWDDENPPISILDPRVCDGDHTNLIAIHSLSKTSNLASYRAGYLVGDPALIGELTEVRKNLGLMVPFPIQQAMIAALNDDDQEAGQKLTYAIRRAKLMRALLESGFQVDNSEAGLYLWATREEPCRDTVDWFAERGILVAPGDFYGPRGAQHVRVAMTETDERVDAFVSRLS | not soluble |
| MGSDKIHHHHHHMIVNQANLQGIYKSFNTIFNQAFDAAPSQWPLVAMQVPSTGRSVDYKWLGDFPMMREWLGDRVLKDLSAFKYEITNKDYESTIEVDRNDIDDDQIGVYTPMIQGLAQAAKVHPDILVFALLKAGFDTGCFDGQYFFDSDHSVNGASVSNTGGGDGTPWYLLDLSRPIKPIVLQIRKRPQFVAMDKPDDENVFMRKKFRYGVDDRKNVGYGLWQLAYGSKQTLDATNYAAARAAMMAFTNDEGVPLGITPTHLVVPPTLESNGRTVVEAQFDANGASNVWYNTAKLVVVPWLA | not soluble |
| MSISMDRWQGIQHVVVVGLGITGLSVVNYLRKYHPSVTVQVIDTREAPPGQEQLSSDVALHRSGWNLEWLLNADLVVTNPGIALATPEIQQVLAAGIPVVGDIELFAWHVDTPVIAITGSNGKSTVTDLSGVLANAAGVKAAVGGNIGVPALDLISPDVELYVLELSSFQLETTSSLKLKAAAFLNLSEDHMDRYQGMEDYRQAKLRIFDHAETAVVNADDTQTFPDHAAHLQVVTFGVEQAAQFSLAQHQGREYLFARDEAVMACAELSLVGRHNVANVLTVLALLDSAGVNFRLALDALKSYTGLTHRCQVVADNHGIKWVNDSKATNVASTLAALSGLKIEGQLYLLVGGVGKGADFTPLAPVLATLPVQLCCFGVDGHQFMPLHPSARFYDSMESIIRSIRPQLKSGDMVLLSPACASFDQFKNFMARGDIFAQLARQYA | not soluble |
| MSLETFTGIRYETAVERVANGGFTDLPRQIEWRKALAAFQSAPIFGHGWNSFAQQTFLINAEQHNIHDNLLSNLFTHSHNIVLQLLAEMEGHHHHHH | not soluble |
| MTLPPVGSTLYSKGTHNYKGLFKECATVGSTLYSKGTHNDADNVPVLRLVGSTLYSKGTHNSRLARPPTRLVGSTLYSKGTHNMILDWWLGRWNVQ | not soluble |
